Experimental data as given in article PMC4951694, “Structural and thermodynamic basis of proline-induced transmembrane complex stabilization” (Scientific Reports, 2016).

Target: T1, integrin β3(G690C/A711P) TM peptide of the disulfide-linked αIIb(A963C)–β3(G690C/A711P) dimer (human, UniProt P05106 711-753, C687S | G690C | A711P, not fully specified; C690 disulfide-linked to C963 of αIIb(A963C); 2H/13C/15N or 2H/15N labelling in some samples)
T1 construct: integrin β3, human, P685-F727; add 26 for P05106; source: E. coli
T1 chain (looked up): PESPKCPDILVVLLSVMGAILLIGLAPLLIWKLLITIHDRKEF
Assay: NMR structure; disulfide-linked dimer, 0.8 mM, in 350 mM DHPC, 105 mM DMPC bicelles (q 0.3), pH 7.4, 40 °C; interhelical NOEs and RDCs
Conditions: both partners purified

B1: integrin αIIb(A963C) TM peptide of the disulfide-linked αIIb(A963C)–β3(G690C/A711P) dimer (peptide)
chain: not shown
modifications: C963 disulfide-linked to C690 of β3(G690C/A711P); 2H/13C/15N, 2H/15N or fractionally deuterated labelling in some samples
notes: integrin αIIb, human, A958-P998; add 31 for P08514; source: E. coli
B1: binds.
